Patent US20110008312A1

Molecular target: fibrillin-1 (human) (UniProt P35555)
Assay: cell-based or functional assay

Sequence of UniProt P35555 (P35555 45-2731 limits assumed): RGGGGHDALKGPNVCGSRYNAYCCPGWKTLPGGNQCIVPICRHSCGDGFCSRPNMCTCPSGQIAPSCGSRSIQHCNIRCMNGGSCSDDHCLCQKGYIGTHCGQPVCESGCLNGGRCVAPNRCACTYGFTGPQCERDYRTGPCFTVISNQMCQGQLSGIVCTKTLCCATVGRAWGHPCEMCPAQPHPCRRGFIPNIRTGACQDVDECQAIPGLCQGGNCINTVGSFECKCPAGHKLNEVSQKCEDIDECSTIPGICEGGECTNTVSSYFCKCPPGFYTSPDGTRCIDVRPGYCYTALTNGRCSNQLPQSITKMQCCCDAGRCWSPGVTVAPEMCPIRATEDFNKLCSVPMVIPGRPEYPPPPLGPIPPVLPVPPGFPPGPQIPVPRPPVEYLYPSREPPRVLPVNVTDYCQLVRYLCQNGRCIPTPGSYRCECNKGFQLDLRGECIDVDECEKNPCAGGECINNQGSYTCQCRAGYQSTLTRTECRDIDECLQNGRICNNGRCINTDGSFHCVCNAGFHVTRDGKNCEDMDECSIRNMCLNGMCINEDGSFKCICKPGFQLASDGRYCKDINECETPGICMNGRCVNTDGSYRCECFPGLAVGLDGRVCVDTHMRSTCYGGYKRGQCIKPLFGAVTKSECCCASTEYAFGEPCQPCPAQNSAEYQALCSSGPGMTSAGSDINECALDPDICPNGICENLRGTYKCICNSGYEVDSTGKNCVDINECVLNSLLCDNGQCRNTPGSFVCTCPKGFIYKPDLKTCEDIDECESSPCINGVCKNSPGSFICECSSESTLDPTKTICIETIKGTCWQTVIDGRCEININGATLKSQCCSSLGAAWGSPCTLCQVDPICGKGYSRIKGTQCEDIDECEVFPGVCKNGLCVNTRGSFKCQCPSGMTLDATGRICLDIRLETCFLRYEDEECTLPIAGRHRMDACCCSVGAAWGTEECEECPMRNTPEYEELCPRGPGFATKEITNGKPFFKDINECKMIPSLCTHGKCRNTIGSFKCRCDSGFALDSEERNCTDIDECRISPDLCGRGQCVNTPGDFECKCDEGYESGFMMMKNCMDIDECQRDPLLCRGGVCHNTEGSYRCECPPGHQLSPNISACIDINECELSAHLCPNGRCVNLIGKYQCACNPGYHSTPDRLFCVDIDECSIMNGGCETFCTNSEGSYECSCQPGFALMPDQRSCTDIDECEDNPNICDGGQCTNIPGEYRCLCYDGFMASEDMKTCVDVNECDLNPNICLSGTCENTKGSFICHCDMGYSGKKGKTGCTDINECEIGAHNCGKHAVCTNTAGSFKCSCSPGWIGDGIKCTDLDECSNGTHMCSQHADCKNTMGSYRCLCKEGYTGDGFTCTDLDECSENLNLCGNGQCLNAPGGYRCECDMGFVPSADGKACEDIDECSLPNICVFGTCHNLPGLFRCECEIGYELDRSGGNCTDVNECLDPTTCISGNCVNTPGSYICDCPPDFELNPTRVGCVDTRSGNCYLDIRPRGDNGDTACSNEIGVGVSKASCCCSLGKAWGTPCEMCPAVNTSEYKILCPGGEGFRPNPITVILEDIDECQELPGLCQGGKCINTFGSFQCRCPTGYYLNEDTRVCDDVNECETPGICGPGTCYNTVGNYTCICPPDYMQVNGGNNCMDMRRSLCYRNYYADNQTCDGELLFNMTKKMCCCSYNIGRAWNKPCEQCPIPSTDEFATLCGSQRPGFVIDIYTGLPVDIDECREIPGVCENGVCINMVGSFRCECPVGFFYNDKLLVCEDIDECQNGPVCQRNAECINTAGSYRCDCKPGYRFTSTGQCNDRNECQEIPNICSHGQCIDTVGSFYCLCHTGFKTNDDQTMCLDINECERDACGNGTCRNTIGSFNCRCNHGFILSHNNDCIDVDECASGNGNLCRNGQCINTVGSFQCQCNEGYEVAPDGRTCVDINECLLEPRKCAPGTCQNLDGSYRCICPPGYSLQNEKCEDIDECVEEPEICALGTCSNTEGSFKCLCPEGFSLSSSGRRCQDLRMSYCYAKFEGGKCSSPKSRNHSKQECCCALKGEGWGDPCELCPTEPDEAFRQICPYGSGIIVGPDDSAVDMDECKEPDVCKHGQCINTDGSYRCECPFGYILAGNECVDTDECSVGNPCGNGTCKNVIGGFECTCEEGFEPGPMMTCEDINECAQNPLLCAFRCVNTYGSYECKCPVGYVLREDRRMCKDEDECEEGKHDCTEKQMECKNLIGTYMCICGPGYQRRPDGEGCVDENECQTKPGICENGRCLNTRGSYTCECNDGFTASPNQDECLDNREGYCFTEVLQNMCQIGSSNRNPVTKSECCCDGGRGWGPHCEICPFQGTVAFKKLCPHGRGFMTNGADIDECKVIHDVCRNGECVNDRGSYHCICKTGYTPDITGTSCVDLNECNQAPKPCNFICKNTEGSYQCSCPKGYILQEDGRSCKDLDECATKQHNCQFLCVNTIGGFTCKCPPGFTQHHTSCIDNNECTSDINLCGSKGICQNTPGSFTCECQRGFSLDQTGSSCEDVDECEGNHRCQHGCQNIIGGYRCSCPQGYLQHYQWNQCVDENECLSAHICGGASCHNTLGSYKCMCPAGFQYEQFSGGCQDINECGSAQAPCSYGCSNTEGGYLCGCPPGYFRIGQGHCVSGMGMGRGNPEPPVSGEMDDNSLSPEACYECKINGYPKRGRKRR
Sequence of elastin (P15502 27-786 limits assumed): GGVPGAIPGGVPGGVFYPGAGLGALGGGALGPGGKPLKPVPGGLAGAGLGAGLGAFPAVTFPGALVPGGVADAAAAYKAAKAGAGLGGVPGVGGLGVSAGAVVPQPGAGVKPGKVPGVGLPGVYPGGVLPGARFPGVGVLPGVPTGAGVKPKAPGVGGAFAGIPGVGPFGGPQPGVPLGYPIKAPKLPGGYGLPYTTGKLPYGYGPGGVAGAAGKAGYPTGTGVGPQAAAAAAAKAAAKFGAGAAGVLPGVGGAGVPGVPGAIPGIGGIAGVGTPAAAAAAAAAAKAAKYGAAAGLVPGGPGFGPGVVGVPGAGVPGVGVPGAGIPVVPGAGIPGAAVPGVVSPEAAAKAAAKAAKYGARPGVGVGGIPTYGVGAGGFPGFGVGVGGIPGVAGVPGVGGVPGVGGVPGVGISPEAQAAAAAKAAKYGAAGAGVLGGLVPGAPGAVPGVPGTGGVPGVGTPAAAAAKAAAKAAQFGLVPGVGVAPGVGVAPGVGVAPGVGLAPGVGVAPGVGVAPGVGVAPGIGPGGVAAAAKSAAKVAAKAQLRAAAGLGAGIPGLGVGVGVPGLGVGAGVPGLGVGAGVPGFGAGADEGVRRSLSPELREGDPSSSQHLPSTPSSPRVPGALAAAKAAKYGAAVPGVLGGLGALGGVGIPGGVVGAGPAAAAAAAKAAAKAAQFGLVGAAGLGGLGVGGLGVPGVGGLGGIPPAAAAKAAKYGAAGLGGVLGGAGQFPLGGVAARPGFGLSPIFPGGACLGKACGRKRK

amount of elastin deposition to the extracellular matrix (% vs CS-free), keloid cells, CS-A added: 87%
amount of elastin deposition to the extracellular matrix (% vs CS-free), keloid cells, CS-A and CS-B added: 66.3%
amount of elastin deposition to the extracellular matrix (% vs CS-free), keloid cells, CS-A and CS-C added: 67.4%
amount of elastin deposition to the extracellular matrix (% vs CS-free), keloid cells, CS-A, CS-B and CS-C added: 37.6%
amount of elastin deposition to the extracellular matrix (% vs CS-free), keloid cells, CS-B added: 95.9%
amount of elastin deposition to the extracellular matrix (% vs CS-free), keloid cells, CS-B and CS-C added: 91%
amount of elastin deposition to the extracellular matrix (% vs CS-free), keloid cells, CS-C added: 86.7%
amount of elastin deposition to the extracellular matrix (% vs CS-free), keloid cells, CS-free: 100%
Substance: elastin (from UniProt P15502 27-786)
